Reference: patent US20150274831A1

How the values were obtained:
Test in all cases: cell-based or functional assay
[1] = molecular target: human mutant CSF-1R L301S Y969F, full-length, on cells (human) (UniProt P07333)
[2] = molecular target: human wildtype CSF-1R (wt CSF-1R), full-length, on cells (human) (UniProt P07333)
[3] = molecular target: CSF-1R on cynomolgous monocytes (native receptor of CD14-enriched peripheral blood monocytes) (cynomolgous)

Question: Which Mutant CSF-1R IC30 [µg/ml] (cell viability, 3D culture, CellTiterGlo) [1] does the source give for “Anti CSF-1R SC 2-4A5 (Santa Cruz Biotechnology, US) (antibody)” here?
Answer: Its Mutant CSF-1R IC30 [µg/ml] (cell viability, 3D culture, CellTiterGlo) is 2.56 µg/mL.

Question: And the Mutant CSF-1R IC50 [µg/ml] (cell viability, 3D culture, CellTiterGlo) [1]?
Answer: Its Mutant CSF-1R IC50 [µg/ml] (cell viability, 3D culture, CellTiterGlo) is 10 µg/mL.

Question: And the IC50 CSF-1R Phosphorylation [2]?
Answer: Its IC50 CSF-1R Phosphorylation is 1.01 µg/mL.

Question: And the wtCSF-1R IC30 [µg/ml] (cell viability, 3D culture, CellTiterGlo) [2]?
Answer: The wtCSF-1R IC30 [µg/ml] (cell viability, 3D culture, CellTiterGlo) was 16.6 µg/mL.

Question: What about the wtCSF-1R IC50 [µg/ml] (cell viability, 3D culture, CellTiterGlo) [2] of the same substance?
Answer: The wtCSF-1R IC50 [µg/ml] (cell viability, 3D culture, CellTiterGlo) was 10 µg/mL.

Question: And the % inhibition (of survival) = (100% - % survival) (CellTiterGlo; cynomolgous monocytes with 150 ng/ml huCSF-1; 5 µg/ml antibody) [3]?
Answer: The % inhibition (of survival) = (100% - % survival) (CellTiterGlo; cynomolgous monocytes with 150 ng/ml huCSF-1; 5 µg/ml antibody) was 69%.

Question: And the % survival (CellTiterGlo; cynomolgous monocytes with 150 ng/ml huCSF-1; 5 µg/ml antibody) [3]?
Answer: Its % survival (CellTiterGlo; cynomolgous monocytes with 150 ng/ml huCSF-1; 5 µg/ml antibody) is 31%.

Question: For “goat polyclonal anti-CSF-1R antibody ab10676 (abcam)”, which % inhibition at 20 µg/ml (mutant CSF-1R cells) [1] is on record?
Answer: The % inhibition at 20 µg/ml (mutant CSF-1R cells) was 0%.

Question: And the Mutant CSF-1R IC30 [µg/ml] (cell viability, 3D culture, CellTiterGlo) [1]?
Answer: Its Mutant CSF-1R IC30 [µg/ml] (cell viability, 3D culture, CellTiterGlo) is over 20 µg/mL.

Question: And the wtCSF-1R IC30 [µg/ml] (cell viability, 3D culture, CellTiterGlo) [2]?
Answer: The wtCSF-1R IC30 [µg/ml] (cell viability, 3D culture, CellTiterGlo) was 14.2 µg/mL.
